# From publication PMC5010500 (Journal of molecular biology, 2016)
# B1: MBP-tagged Marburg virus viral protein 24, wild type, full length (natural protein)
# chain: MAELSTRYNLPANVTENSINLDLNSTARWIKEPSVGGWTVKWGNFVFHIPNTGMTLLHHLKSNFVVPEWQQTRNLFSHLFKNPKSTIIEPFLALRILLGVALKDQELQQSLIPGFRSIVHMLSEWLLLEVTSAIHISPNLLGIYLTSDMFKILMAGVKNFFNKMFTLHVVNDHGKPSSIEIKLTGQQIIITRVNMGFLVEVRRIDIEPCCGETVLSESVVFGLVAEAVLREHSQMEKGQPLNLTQYMNSKIAI
# B2: MBP-tagged mVP24 N-terminal truncation (residues 22-253) (domain or fragment)
# chain: DLNSTARWIKEPSVGGWTVKWGNFVFHIPNTGMTLLHHLKSNFVVPEWQQTRNLFSHLFKNPKSTIIEPFLALRILLGVALKDQELQQSLIPGFRSIVHMLSEWLLLEVTSAIHISPNLLGIYLTSDMFKILMAGVKNFFNKMFTLHVVNDHGKPSSIEIKLTGQQIIITRVNMGFLVEVRRIDIEPCCGETVLSESVVFGLVAEAVLREHSQMEKGQPLNLTQYMNSKIAI
# Key:
# [1] = molecular target: T1, human Keap1 Kelch domain (residues 322-624) (human, UniProt Q14145 322-624); assay: native MS
# T1 sequence (Q14145 322-624): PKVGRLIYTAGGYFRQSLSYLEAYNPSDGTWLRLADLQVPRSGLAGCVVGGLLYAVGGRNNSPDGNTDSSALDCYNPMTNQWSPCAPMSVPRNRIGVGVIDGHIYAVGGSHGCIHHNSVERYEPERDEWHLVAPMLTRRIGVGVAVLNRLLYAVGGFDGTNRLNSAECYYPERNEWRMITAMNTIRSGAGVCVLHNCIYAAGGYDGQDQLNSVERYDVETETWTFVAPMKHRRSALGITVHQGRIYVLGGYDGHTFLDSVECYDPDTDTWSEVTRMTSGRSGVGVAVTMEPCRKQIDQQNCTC
# full length human Keap1 = full length human Keap1 (human, UniProt Q14145 1-624); assay: […]
# Chain of full length human Keap1 (Q14145 whole entry): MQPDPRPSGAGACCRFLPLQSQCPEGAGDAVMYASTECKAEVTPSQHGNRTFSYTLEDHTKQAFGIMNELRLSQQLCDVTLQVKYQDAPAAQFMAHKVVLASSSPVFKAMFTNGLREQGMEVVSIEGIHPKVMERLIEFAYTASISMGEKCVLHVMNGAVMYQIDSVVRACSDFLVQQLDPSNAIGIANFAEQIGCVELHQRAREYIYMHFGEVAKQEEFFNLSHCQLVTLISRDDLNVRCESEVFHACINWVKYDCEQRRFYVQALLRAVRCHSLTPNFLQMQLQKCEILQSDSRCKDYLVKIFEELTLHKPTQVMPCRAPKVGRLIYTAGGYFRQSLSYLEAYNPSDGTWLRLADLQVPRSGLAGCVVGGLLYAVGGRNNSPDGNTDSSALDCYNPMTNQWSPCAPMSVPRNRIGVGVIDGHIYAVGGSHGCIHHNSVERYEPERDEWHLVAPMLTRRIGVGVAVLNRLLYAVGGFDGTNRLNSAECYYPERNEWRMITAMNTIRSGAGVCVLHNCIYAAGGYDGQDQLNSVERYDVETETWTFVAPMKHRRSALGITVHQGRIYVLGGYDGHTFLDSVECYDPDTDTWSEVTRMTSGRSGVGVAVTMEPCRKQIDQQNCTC
# […] = molecular target: the molecule itself; assay: […]
# [2] = molecular target: T1, human Keap1 Kelch domain (residues …); assay: ITC
Binder,stoichiometry N [1],stoichiometry N (full length human Keap1),stoichiometry N ([…]),Kd [2] [nM]
B1,1,1 mVP24 per Keap1 (2:2),2,–
B2,–,–,–,77 ± 4
